Source: PMC2767265 (Nature structural & molecular biology, 2008)
Where two headings read alike, the source gives them in different places.

T1: Ffh (E. coli SRP protein), wild type (E. coli, UniProt P0AGD7 1-453)
T1 sequence (looked up): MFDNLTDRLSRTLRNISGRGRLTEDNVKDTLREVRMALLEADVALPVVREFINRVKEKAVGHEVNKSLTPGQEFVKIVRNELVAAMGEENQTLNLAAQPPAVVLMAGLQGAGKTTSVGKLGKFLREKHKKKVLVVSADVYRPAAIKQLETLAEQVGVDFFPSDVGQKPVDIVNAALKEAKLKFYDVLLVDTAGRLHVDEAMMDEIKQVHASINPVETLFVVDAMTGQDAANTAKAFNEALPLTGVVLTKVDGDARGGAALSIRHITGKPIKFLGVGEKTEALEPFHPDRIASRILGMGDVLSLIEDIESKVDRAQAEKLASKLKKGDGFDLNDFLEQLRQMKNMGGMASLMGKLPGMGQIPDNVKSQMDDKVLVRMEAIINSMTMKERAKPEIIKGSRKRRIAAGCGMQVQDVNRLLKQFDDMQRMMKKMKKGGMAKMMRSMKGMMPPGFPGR

B1: FtsY lacking the first 46 amino acids of the A domain (wild-type reference) (domain or fragment, E. coli, UniProt P10121 47-497, looked up)
chain: ASEQAVEEQPQAHTEAEAETFAADVVEVTEQVAESEKAQPEAEVVAQPEPVVEETPEPVAIEREELPLPEDVNAEAVSPEEWQAEAETVEIVEAAEEEAAKEEITDEELETALAAEAAEEAVMVVPPAEEEQPVEEIAQEQEKPTKEGFFARLKRSLLKTKENLGSGFISLFRGKKIDDDLFEELEEQLLIADVGVETTRKIITNLTEGASRKQLRDAEALYGLLKEEMGEILAKVDEPLNVEGKAPFVILMVGVNGVGKTTTIGKLARQFEQQGKSVMLAAGDTFRAAAVEQLQVWGQRNNIPVIAQHTGADSASVIFDAIQAAKARNIDVLIADTAGRLQNKSHLMEELKKIVRVMKKLDVEAPHEVMLTIDASTGQNAVSQAKLFHEAVGLTGITLTKLDGTAKGGVIFSVADQFGIPIRYIGVGERIEDLRPFKADDFIEALFARED
B2: FtsY204 (FtsY residues 204-497, includes helix N1) (domain or fragment, E. coli, UniProt P10121 204-497, looked up)
chain: LKTKENLGSGFISLFRGKKIDDDLFEELEEQLLIADVGVETTRKIITNLTEGASRKQLRDAEALYGLLKEEMGEILAKVDEPLNVEGKAPFVILMVGVNGVGKTTTIGKLARQFEQQGKSVMLAAGDTFRAAAVEQLQVWGQRNNIPVIAQHTGADSASVIFDAIQAAKARNIDVLIADTAGRLQNKSHLMEELKKIVRVMKKLDVEAPHEVMLTIDASTGQNAVSQAKLFHEAVGLTGITLTKLDGTAKGGVIFSVADQFGIPIRYIGVGERIEDLRPFKADDFIEALFARED
modifications: for NMR: 13C on the methyl groups of isoleucine, leucine and valine
B3: FtsYΔN1 (FtsY residues 221-497, lacks the A domain and the first helix of the N domain) (domain or fragment, E. coli, UniProt P10121 221-497, looked up)
chain: KKIDDDLFEELEEQLLIADVGVETTRKIITNLTEGASRKQLRDAEALYGLLKEEMGEILAKVDEPLNVEGKAPFVILMVGVNGVGKTTTIGKLARQFEQQGKSVMLAAGDTFRAAAVEQLQVWGQRNNIPVIAQHTGADSASVIFDAIQAAKARNIDVLIADTAGRLQNKSHLMEELKKIVRVMKKLDVEAPHEVMLTIDASTGQNAVSQAKLFHEAVGLTGITLTKLDGTAKGGVIFSVADQFGIPIRYIGVGERIEDLRPFKADDFIEALFARED

How the values were obtained:
Experiment in all cases: other fluorescence titration
[1] = target: T1, Ffh (E. coli SRP protein), wild type
[2] = target: T1, Ffh (E. coli SRP protein), wild type; remark: listed apart in the source
[3] = target: T1, Ffh (E. coli SRP protein), wild type; remark: listed apart in the source

Row | Binder | Kd [1] [nM] | koff [1] [s⁻¹] | kon [1] [M⁻¹ s⁻¹] | Kd [2] [nM] | koff [2] [s⁻¹] | kon [2] [M⁻¹ s⁻¹] | binding result [3]
1 | B1 | 82.7 ± 13 | 8.6e-06 | 104 | 68.4 ± 4.2 | 0.00265 | 38800 | –
2 | B2 | – | – | – | – | – | – | binds
3 | B3 | 7.98 ± 1.1 | 5.47e-06 | 685 | 14.9 ± 2.1 | 0.000605 | 40500 | –
